Bridge positions count the residues as written; N and C are the ends. Square brackets hold non-standard residues; d marks the D form. Primed or numbered codes have the meaning given here. Ends that are not written are not given here. * marks the point of attachment. DOTA = O=C(O)CN1CCN(CC(=O)O)CCN(CC(=O)*)CCN(CC(=O)O)CC1; Biotin = O=C1N[C@H]2[C@H](CS[C@H]2CCCCC(=O)*)N1; PEG4′ = polyethylene glycol (PEG4) linker; Lys(Me3) = C[N+](C)(C)CCCC[C@H](N)C(=O)O; PEG4 = NCCOCCOCCOCCOCCC(=O)O
T1: mouse Nectin-4 (Mus musculus, UniProt Q8R007)
T1 sequence (Q8R007 31-508): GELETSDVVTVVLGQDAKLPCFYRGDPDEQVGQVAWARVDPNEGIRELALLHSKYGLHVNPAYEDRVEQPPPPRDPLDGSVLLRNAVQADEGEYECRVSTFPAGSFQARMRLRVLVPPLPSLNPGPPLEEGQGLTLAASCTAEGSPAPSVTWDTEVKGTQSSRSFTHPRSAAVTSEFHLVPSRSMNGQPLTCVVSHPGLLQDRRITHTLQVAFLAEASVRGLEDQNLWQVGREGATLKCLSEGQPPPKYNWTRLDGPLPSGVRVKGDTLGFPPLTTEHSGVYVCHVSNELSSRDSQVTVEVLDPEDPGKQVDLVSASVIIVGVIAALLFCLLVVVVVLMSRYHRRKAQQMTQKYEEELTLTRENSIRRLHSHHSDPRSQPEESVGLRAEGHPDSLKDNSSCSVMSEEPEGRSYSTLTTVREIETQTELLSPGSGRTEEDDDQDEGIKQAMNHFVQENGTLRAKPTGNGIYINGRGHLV

T2: human Nectin-4 (Homo sapiens, UniProt Q96NY8)
T2 sequence (Q96NY8 32-510): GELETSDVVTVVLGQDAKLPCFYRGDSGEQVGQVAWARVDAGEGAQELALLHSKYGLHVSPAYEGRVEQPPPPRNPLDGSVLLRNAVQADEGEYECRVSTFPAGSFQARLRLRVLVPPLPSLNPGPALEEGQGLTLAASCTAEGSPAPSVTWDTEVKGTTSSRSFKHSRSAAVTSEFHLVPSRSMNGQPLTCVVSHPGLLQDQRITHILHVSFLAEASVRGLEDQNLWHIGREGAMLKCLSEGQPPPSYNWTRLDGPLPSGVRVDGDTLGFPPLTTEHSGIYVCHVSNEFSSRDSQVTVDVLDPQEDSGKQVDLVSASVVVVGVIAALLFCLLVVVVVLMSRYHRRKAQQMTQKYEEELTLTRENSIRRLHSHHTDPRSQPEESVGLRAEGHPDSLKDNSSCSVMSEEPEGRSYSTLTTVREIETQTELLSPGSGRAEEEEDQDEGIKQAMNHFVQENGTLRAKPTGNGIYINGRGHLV

T3: Human Nectin-4 (human, UniProt Q96NY8 32-349, limits assumed)
T3 construct: Amine-coupled to the Biacore chip; also called target protein; ligand
T3 sequence: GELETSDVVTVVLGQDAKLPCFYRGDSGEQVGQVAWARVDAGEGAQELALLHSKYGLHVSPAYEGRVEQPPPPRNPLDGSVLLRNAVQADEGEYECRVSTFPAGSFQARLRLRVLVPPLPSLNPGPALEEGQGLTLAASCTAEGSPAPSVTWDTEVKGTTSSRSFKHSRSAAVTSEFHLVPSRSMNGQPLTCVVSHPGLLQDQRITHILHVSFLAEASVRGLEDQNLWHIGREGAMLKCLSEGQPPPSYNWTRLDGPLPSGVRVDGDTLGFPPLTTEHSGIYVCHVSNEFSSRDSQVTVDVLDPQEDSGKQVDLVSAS

T4: Nectin-4 on HT1376 urothelial cancer cells (UniProt Q96NY8 32-510)
T4 construct: whole, on cells; also called HT1376 cells
T4 sequence (looked up): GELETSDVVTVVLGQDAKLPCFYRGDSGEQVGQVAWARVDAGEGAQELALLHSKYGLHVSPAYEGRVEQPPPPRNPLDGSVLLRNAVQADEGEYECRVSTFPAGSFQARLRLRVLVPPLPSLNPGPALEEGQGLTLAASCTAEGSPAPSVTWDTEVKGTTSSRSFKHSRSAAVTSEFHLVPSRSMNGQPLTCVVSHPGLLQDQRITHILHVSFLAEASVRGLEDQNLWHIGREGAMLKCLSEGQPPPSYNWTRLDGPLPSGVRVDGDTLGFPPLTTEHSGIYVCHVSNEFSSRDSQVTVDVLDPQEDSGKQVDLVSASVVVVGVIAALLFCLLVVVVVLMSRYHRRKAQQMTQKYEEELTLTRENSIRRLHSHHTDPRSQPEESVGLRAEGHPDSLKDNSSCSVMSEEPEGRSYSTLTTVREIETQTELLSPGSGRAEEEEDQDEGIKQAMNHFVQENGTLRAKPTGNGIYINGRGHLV


Columns and labels:
in vivo = settings: female, athymic nude, mouse, tumor (HT1376 xenograft), total radioactivity
Protocol: In-111 labeling of miniproteins with MES buffer: In-111 was neutralized with 0.5 M MES buffer pH 5.5. This mixture was added to miniproteins prepared at 2 mg/mL in water with an equivalent amount of 0.5 M MES buffer pH 5.5, in a 1.5 mL Eppendorf vial and heated at 37° C. for 60 minutes. After the reaction, an HPLC sample was taken and an equivalent amount of 10 mM DTPA in 0.1 M ammonium acetate pH 5 was added and incubated for at least 15 minutes. The sample was then used for HPLC analysis.
In-111 labeling of miniproteins with Sodium Acetate buffer: In-111 was neutralized with 0.1 M sodium acetate buffer pH 5. […] After the reaction, an HPLC sample was taken and an equivalent amount of 10 mM DTPA in 0.1 M ammonium acetate pH 5 was added and incubated for at least 15 minutes. The sample was then used for HPLC analysis.
Purification of ^111In-miniproteins: Purification was done on two of the crude reaction mixtures mixed with 10 mM DTPA in 0.1 M ammonium acetate pH 5 and incubated for 15 minutes. A 3 kDa 0.5 mL Amicon filter was used for purification and the filter was spun at 15,000 RCF for 9 minutes. Saline was used as a formulation buffer.
Animals: Female athymic nude mice (6-8 weeks of age) were purchased from Charles River Laboratories and housed according to IACUC guidelines with ad libitum feeding. Biodistribution imaging experiments were performed on both null and tumor bearing athymic nude mice. Tumor xenograft models were generated by inoculating mice subcutaneously with 3×10^6 HT1376 cells, in 200 μL (50:50 PBS/Matrigel) in the right shoulder or right flank. Tumors were monitored for 14 days prior to SPECT/CT imaging dates. Mice with tumor volumes between 150 mm^3 and 250 mm^3 were selected for study inclusion and randomized to treatment arms. An excess of 60% of required imaging study mice were inoculated with tumor cells to ensure enough mice with appropriate tumor ranges were generated.
Animal grouping and Treatment: Animals were monitored for body weight bi-weekly and at the time of experimentation, grouped into groups of n=3. Animals were administered test-agents (TAs) that were prepared as described above. Animals received one of two standard injected dose activates and mass dose injections, depending at which site imaging studies were performed. • Site-1: 350 μCi of activity (^111In) at approximately […] peptide per mouse. • Site-2: 30MBq ([…]) of activity (^111In) at approximately 1 nM ([…]) of total peptide per mouse.
Animal imaging: Animals were sedated using isoflurane gas and imaged in a 3 bed hotel using a NanoScan SPECT/CT scanner. Animals were imaged at timepoints between 10 mins and 72 h post-dosing via SPECT scan, followed by CT scans. Details of the image process and analysis are described in Example 11.
Image Processing: Images were generated as SPECT/CT pair with the SPECT reported in units of activity. Namely, the values assigned to the voxels (volume elements) comprising the SPECT images were in units of μCi. SPECT images were co-registered to the CT scan for anatomical reference, resampled to 0.2 mm^3 voxels, masked to remove the CT background, and cropped to a uniform size prior to analysis.
Estimating tissue uptake: Regions of interest (ROIs) were defined using VivoQuant software. The kidneys and bladder were segmented as fixed volume phantoms and registered using the CT for anatomical reference. Two fixed volume spheres were used to create the liver ROI. Spheres were placed at appropriate anatomical locations based on CT and SPECT signal. Group and individual master spreadsheets were generated which included the volume, activity, and concentration (Activity/Volume) at each time point for each ROI generated. Additionally, plots of activity were generated using Matplotlib based python tools to highlight trends in the data.

mouse Nectin-4 = target: T1, mouse Nectin-4; assay: Surface plasmon resonance (Biacore T200) binding to mouse Nectin-4; settings: 1:1 binding model, twenty-five degrees Celsius
Protocol: (§1) Peptide binding affinity to the target protein was measured by SPR using a Biacore T200 instrument. The target protein was covalently coupled to a Biacore chip surface using free amine-coupling chemistry (NHS/EDC) and all uncoupled sites were blocked with ethanolamine. Free peptides were flowed over the target protein surface in increasing concentrations to measure association (KA) and dissociation ([…]) to calculate the equilibrium dissociation constant (KD) using an appropriate binding model (see, e.g., Nikolas Stroth, J Biol Methods. 2016; 3 (1)).
(§2) In all figures (FIGS. 1A, 1B, 2A, and 2B), lines on graphs are labeled from top to bottom, beginning with letter “a,” and the corresponding concentration is noted to the right of the figure, next to the letter designating each line.
Surface plasmon resonance (SPR) analyses were performed using Biacore T200 (GE Healthcare). Target protein (“ligand”) was immobilized to a CM5 Series S sensor chip (Cytiva) using amine-coupling chemistry. Running buffer was 0.05% Surfactant P20 in HEPES buffered saline (HBS-P), pH 7.4 (Cytiva). Immobilization was performed at 25° C. Carboxyl groups in each flow cell were activated using a 1:1 mixture of 0.4 M 1-ethyl-3-(3-dimethylaminopropyl)-carbodiimide in water (EDC) and 0.1 M N-hydroxysuccinimide in water (NHS) for 7 minutes. The ligand was prepared in 10 mM Sodium acetate pH 5 (Cytiva). Pulsatile injections were made to target a specific immobilization level. Any remaining amine-reactive esters on the chip surface were blocked with a 7-minute injection of 1 M ethanolamine, pH 8.5. […]
Increase in signal (RU) is proportional to an increase in binding events between the analyte and ligand surface. The injection was then stopped, and dissociation was measured. […] Measured association (ka, 1/M^s−1) and dissociation (kd, s^−1) were fit to a 1:1 binding model to calculate an equilibrium dissociation constant, KD(M) for each analyte. […]
In this example, affinity for mouse Nectin-4 (FIG. 3A) and human Nectin-4 (FIG. 3B) were measured using a 1:1 binding model at twenty-five degrees Celsius. […]

human Nectin-4 [1] = target: T2, human Nectin-4; assay: Surface plasmon resonance (Biacore T200) binding to human Nectin-4; settings: human Nectin-4, 1:1 binding model, twenty-five degrees Celsius
Protocol: as §1, §2
Surface plasmon resonance (SPR) analyses were performed using Biacore T200 (GE Healthcare). Target protein (“ligand”) was immobilized to a CM5 Series S sensor chip (Cytiva) using amine-coupling chemistry. Running buffer was 0.05% Surfactant P20 in HEPES buffered saline (HBS-P), pH 7.4 (Cytiva). Immobilization was performed at 25° C. Carboxyl groups in each flow cell were activated using a 1:1 mixture of 0.4 M 1-ethyl-3-(3-dimethylaminopropyl)-carbodiimide in water (EDC) and 0.1 M N-hydroxysuccinimide in water (NHS) for 7 minutes. The ligand was prepared in 10 mM Sodium acetate pH 5 (Cytiva). Pulsatile injections were made to target a specific immobilization level. Any remaining amine-reactive esters on the chip surface were blocked with a 7-minute injection of 1 M ethanolamine, pH 8.5. Three 10-second pulses of 50 mM Sodium hydroxide were then made to remove any unbound ligand. Reference cells were modified using amine coupling chemistry, omitting ligand injection.
Increase in signal (RU) is proportional to an increase in binding events between the analyte and ligand surface. The injection was then stopped, and dissociation was measured. The resulting sensorgram has reference surface and blank injection subtracted prior to curve fitting. Measured association (ka, 1/M^s−1) and dissociation (kd, s^−1) were fit to a 1:1 binding model to calculate an equilibrium dissociation constant, KD(M) for each analyte. Equilibrium binding constants (KD) and binding inhibition constants (Ki) estimated from surface plasmon resonance (SPR) or DELFIA® binding assays for exemplary compounds as set forth in Table 2A.
In this example, affinity for mouse Nectin-4 (FIG. 3A) and human Nectin-4 (FIG. 3B) were measured using a 1:1 binding model at twenty-five degrees Celsius. In both of FIGS. 3A and 3B, lines on graphs were labeled from top to bottom, beginning with letter a, and the corresponding concentration was noted to the right of the figure.

Human Nectin-4 [2] = target: T3, Human Nectin-4; assay: SPR (Biacore), Nectin-4 immobilised
[3] = target: T4, Nectin-4 on HT1376 urothelial cancer …; assay: saturation radioligand binding (Lu-177) on HT1376 cells, 4 C, gamma counting
Protocol: Radioligand binding was performed in HT1376 urothelial cancer cells by method of saturation. Cells were seeded at 20,000 cells per well in 96-well format 48 hours prior to assay. Lutetium-177-labeled radioconjugates of C215 and C117 were incubated with cells at 4 deg C. for 1 h at various increasing concentrations of radioligand. At the end of incubation cells were washed three times with PBS and radioactivity was quantified by gamma counting as shown in Table 3.

Row | Molecule | Kd (Human Nectin-4 [2]) [nM] | further results
1 | {DOTA-PEG4}-CEYDEQFFTALSSLRGGDICYYIQEQFANVPGICIEEILDNLGCS (disulfide 1-34, 20-44) [Compound C137] |  | tissue uptake at 4 h (in vivo): 1.12 %ID/g
2 | {DOTA-PEG4}-CEYDEEFFAGLKRLRGGDICYYIKKKFDKVPDLCIEEILDKLGC (disulfide 1-34, 20-44) [Compound C12] |  | kd (dissociation) (mouse Nectin-4): 0.02625 s⁻¹; kd (dissociation) (human Nectin-4 [1]): 0.01697 s⁻¹; Kd (human Nectin-4 [1]; read-out: KD): 10.5 nM
3 | {Biotin-PEG4′}-CEYDEEFFTALKRLRGGDICEYIQA[Lys(Me3)]FQYLPGLCIEEILDNLGCS-OH (designed binder, disulfide 1-34, 20-44) [C201] | 0.68 | 
4 | {DOTA-PEG4′}-CEYDEEFFTALKRLRGGDICYYIKKKFKKVPKLCIEEILDKLGC-OH (designed binder, disulfide 1-34, 20-44; also: DOTA labeled with lutetium-177) [Lutetium-177-labeled radioconjugate of C215] |  | Kd [3]: 4.24 nM
5 | H-CEDDGEYFAGLQRLYGGDICYYIKLKFPKVPDLCIKEILDKLGC-OH (designed binder, disulfide 1-34, 20-44) [C1] | 184 | 
6 | H-CEYDEEFFAGLKRLRGGDICYYIKKKFDKVPDLCIKEILDKLGC-OH (designed binder, disulfide 1-34, 20-44) [C3] | 9.68 | 
7 | H-CEDDFQFFADLKRLRGGDICYYIRLKFDKVPDLCIKEILDKLGC-OH (designed binder, disulfide 1-34, 20-44) [C4] | 14.4 | 
8 | CEYDEEFFAGLKRLRGGDICYYIKKKFDKVPDLCIEEILDKLGC-OH (designed binder, disulfide 1-34, 20-44) [C7] | 5.5 | 

Source: patent US20260034253A1, “NECTIN-4 MINIPROTEIN CONJUGATES” (Aktis Oncology, Inc., priority 2022, published 2026)
